The target of assay [1] is T1, N-terminal Flag-tagged human Nectin-4 expressed on transfected MDA-MB231 cells (human, UniProt Q96NY8 32-510).
T1 construct: whole, on cells; also called PVRL4; not shown: N-terminal Flag tag
T1 sequence (looked up): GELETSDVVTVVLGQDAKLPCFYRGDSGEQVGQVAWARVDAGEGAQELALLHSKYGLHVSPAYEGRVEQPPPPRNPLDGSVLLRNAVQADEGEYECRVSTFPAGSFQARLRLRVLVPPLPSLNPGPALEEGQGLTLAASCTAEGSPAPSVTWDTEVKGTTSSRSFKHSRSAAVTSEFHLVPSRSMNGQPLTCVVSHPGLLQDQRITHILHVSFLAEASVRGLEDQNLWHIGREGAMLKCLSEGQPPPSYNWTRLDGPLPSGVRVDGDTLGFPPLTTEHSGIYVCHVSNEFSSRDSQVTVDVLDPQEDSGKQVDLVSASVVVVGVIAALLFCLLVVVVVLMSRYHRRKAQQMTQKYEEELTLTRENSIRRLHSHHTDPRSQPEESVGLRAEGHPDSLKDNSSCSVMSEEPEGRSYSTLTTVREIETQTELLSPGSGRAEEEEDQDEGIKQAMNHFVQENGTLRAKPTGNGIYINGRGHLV
The experiment in a line: flow cytometry on MDA-MB231 cells transfected with N-terminal Flag-tagged Nectin-4 (FIG. 1).

The target in assay [2] is T2, Nectin-4 extracellular domain Fc fusion recombinant protein (human, UniProt Q96NY8 32-349).
T2 construct: extracellular domain; also called Nec4-VCC; Nectin-4-VCC-Fc; not shown: Fc part
T2 sequence (looked up): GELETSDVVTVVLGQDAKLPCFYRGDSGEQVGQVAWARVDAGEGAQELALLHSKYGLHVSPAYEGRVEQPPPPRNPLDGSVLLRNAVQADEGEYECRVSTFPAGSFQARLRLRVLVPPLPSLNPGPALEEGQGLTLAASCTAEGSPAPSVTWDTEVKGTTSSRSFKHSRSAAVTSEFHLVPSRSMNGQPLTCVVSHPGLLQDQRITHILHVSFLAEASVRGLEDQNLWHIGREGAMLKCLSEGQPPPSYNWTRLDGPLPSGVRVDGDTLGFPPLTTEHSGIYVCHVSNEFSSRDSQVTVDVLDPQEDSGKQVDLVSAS
The experiment in a line: ELISA, plate coated with Nec4-VCC, peroxidase-conjugated Ch-15A7.5 (FIG. 2).

Assay [3] deals with T3, Nectin-4 IgV-like domain Fc fusion recombinant protein (human, UniProt Q96NY8 32-147, limits assumed).
T3 construct: domain: IgV-like domain; also called Nec4-V; Nectin-4-V-Fc; not shown: Fc part
T3 sequence (looked up): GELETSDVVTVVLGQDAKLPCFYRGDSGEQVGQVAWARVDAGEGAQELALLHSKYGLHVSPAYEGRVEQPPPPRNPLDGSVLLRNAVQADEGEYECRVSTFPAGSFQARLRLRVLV
The experiment in a line: ELISA, plate coated with Nec4-V, peroxidase-conjugated Ch-15A7.5 (FIG. 2).

In assay [4] the target is T4, human Nectin-4 on cells (CHO cells transfected with human Nectin-4 cDNA); normal differentiated human … (human, UniProt Q96NY8 32-510).
T4 construct: whole, on cells
T4 sequence (looked up): T1 sequence (looked up)
The assay is described as follows: flow cytometry on normal differentiated human keratinocytes (NHEK), 8 pM-33 nM (FIG. 15).

Assay [5] has as its target T5, Nectin-1 extracellular domain Fc fusion recombinant protein (UniProt Q15223 31-355, limits assumed).
T5 construct: extracellular domain; also called Nec1-VCC; Nectin-1-VCC-Fc; not shown: Fc part
T5 sequence (looked up): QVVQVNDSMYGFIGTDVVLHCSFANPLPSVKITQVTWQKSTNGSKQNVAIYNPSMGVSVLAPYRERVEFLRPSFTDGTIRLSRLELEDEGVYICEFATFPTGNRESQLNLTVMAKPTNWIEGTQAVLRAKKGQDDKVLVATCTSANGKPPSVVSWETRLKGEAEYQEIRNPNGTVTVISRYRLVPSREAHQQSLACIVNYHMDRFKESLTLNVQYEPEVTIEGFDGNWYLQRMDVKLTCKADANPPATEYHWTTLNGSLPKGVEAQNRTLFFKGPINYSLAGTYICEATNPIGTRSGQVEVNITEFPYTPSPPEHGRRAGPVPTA
The experiment in a line: ELISA, plate coated with Nec1-VCC, peroxidase-conjugated Ch-15A7.5 (FIG. 2).

The target of assay [6] is T4, human Nectin-4 on cells (CHO cells …). The experiment in a line: flow cytometry on normal differentiated human keratinocytes (NHEK), 8 pM-33 nM (FIG. 15); reference antibody of the comparison.

B1: Ch-15A7.5 (chimeric form of the anti-Nectin-4 monoclonal antibody 15A7.5) (antibody, V domains shown)
VH: EVKLVESGGGLVQPGGSRKLSCAASGFTFSNYGMAWVRQAPGKGPEWVAFISNLAYGINYADTVTGRFTISRENAKNTLYLEMRSLRSEDTAMYYCARGARATGWFAYWGQGTLVTVSA
VL: DIVMTQSQKFMSTSIGDRVSVTCKASQNVDTHVAWYQEKPGQSPKALIYSASYRYSGVPDRFTGSGSGTDFTLTISNVQSEDLADYFCQQYNSYPLTFGGGTKLEIK
notes: also called 15A7.5 mAb
B1: the binding result in assay [1] was “binds”; in assay [2], “binds”; in assay [3], “binds”; in assay [4], “binds”; in assay [5], “no binding (tested: 10 nM)”.

B2: Ch-5A12.2 (chimeric form of the anti-Nectin-4 monoclonal antibody 5A12.2) (antibody, V domains shown)
VH: QIQLQQSGAELVKPGASVTLSCKTSGFTFNSMYISWLKQKPGQSLEWIAWIYAGTGGTRFNQKFTGKVQLTVDTSSSTAYMQFSSLTTDDSAIYYCAIRSGFVPMDYWGQGTSVTVSS
VL: SIVMTQTPKFLLVSAGDRVTITCKASQSVSNDVAWYQQKPGQSPKLLIYYASNRYTGVPDRFTGSGYGTDFTFTISTVQAEDLAVYFCQQDYSSPWTFGGGTKLEIK
notes: also called 5A12.2 mAb
B2: the binding result in assay [1] and in assay [6] was “binds” each time.

The record behind these values is patent publication EP4309676A1 (Emergence Therapeutics AG, dated 2024).
